{"source": "patent US20090275130A1", "target": "receptors for SCF (kit) on EML clone 1 cells (UniProt P05532)", "sequence (P05532 25-979 limits assumed)": "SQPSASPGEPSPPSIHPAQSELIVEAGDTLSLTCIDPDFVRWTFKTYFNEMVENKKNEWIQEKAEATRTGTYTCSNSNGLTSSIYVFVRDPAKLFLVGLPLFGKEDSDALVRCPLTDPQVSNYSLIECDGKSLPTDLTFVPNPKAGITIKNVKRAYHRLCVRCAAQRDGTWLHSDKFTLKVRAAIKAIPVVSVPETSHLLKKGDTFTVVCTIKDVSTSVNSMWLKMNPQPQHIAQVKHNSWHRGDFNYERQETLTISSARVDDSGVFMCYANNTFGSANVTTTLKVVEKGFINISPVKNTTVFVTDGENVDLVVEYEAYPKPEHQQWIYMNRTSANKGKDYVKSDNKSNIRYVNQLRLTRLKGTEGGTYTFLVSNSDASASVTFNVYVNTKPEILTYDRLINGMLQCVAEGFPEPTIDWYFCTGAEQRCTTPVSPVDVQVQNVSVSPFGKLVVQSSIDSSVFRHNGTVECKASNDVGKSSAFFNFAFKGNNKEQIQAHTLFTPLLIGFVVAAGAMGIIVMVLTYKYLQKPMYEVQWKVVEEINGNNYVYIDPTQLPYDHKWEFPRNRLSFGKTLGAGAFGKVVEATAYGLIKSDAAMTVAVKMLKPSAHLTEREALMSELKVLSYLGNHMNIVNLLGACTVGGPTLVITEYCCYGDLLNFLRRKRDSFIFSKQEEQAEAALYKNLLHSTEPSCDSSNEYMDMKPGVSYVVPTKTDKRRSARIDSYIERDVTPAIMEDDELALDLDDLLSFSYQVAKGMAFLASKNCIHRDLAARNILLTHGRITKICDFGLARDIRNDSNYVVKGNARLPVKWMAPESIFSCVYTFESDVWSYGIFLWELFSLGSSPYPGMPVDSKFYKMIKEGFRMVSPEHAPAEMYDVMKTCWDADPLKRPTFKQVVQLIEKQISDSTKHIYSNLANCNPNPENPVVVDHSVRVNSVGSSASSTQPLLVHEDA", "assay": "cell-based or functional assay", "data": [{"substance": "Stem Cell Factor (SCF) (ligand)", "values": [{"measurement": "fold-increase over control of cell proliferation of EML cells (total DNA, 5 days), 10 nM SCF", "result": 1.25, "unit": "fold"}, {"measurement": "fold-increase over control of cell proliferation of EML cells (total DNA, 5 days), 50 nM SCF", "result": 2.4, "unit": "fold"}]}]}
